B1: BolA-like protein 3 (Homo sapiens), Q53S33 (parent)
chain: MAAWSPAAAAPLLRGIRGLPLHHRMFATQTEGELRVTQILKEKFPRATAIKVTDISGGCGAMYEIKIESEEFKEKRTVQQHQMVNQALKEEIKEMHGLRIFTSVPKR
partner: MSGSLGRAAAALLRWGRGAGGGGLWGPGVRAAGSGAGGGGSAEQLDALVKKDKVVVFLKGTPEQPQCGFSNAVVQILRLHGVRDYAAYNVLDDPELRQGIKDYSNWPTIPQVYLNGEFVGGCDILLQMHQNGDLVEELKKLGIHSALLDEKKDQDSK

Variants of: B1
Details: with glrx5_human GLRX5, Q86SX6

Which “effect of a mutation on the interaction” value does the source give for C59Y here?
The value was “with no effect”.

— IntAct's records for PubMed 34063696
